According to patent publication CN112480260A (FUZHOU MAIXIN BIOTECHNOLOGY DEV CO LTD, dated 2021):

Target: 重组PSMA蛋白片段 (human PSMA residues 307-750 with β2M and His tag, expressed in E. coli) (human, UniProt Q04609 307-750)
Experiment: indirect ELISA, PSMA protein coated at 100 μg/ml, antibody titrated from 2000 to 0.625 ng/mL; affinity constant from the antibody concentration at half of the plateau OD

重组PSMA蛋白片段 (human PSMA residues 307-750 with β2M and His tag, expressed in E. coli), sequence (Q04609 307-750): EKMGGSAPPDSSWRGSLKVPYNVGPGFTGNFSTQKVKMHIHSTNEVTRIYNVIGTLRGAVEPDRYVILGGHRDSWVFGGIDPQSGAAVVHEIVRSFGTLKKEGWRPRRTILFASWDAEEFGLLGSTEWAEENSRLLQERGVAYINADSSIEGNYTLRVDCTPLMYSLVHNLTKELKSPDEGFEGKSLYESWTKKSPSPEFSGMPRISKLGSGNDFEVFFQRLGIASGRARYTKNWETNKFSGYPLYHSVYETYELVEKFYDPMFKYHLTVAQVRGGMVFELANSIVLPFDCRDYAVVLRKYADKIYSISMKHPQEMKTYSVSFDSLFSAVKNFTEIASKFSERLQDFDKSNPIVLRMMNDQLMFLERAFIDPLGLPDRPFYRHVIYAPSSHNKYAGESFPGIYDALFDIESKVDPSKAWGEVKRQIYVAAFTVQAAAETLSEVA

B1: 抗PSMA蛋白单克隆抗体(11D1E5E10) (antibody, V domains shown)
VH: QVQLQQSGPELARPGASVKMSCKASGYTFTSYTIHWVKQRPGQGLEWIGYISPSSGYTNYNQNFKDQATLTADISSSTAYMQLSSLTSEDSAVYYCARSGYRYDWYFDVWGAGTTVTVSS
VL: DIQMTQSPSSLSASLGGKVTITCKASQDINKYIAWYQHKPGKGPRLLIHYTSTLQPGIPSRFSGSGSGRDYSFSISNLEPEDIATYYCLQYDNLWTFGGGTKLEIK
notes: also called CGMCC NO.19683; PSMA单克隆抗体
  Ka: 4.96e+09 M⁻¹
